The chains are these.
B1: EHBP1 CH (calponin homology) domain [human] / EHBP1 bMERB domain (bMERB_(1060-1212), full-length bMERB domain) [human] (parent complex)
chain 1: GRKPNASQSLLVWCKEVTKNYRGVKITNFTTSWRNGLSFCAILHHFRPDLIDYKSLNPQDIKENNKKAYDGFASIGISRLLEPSDMVLLAIPDKLTVMTYLYQIRAHFSGQ
chain 2: not shown

In the first assay the parent is B1. Put plainly: ITC.
Take chain 1 Y102A: the dissociation constant (Kd) turned out to be 5.65 µM.

Variants of B1 are the subject of the next assay. Put plainly: ITC. The source holds these as a separate data set.
Turning to chain 1 M98A, the dissociation constant Kd amounted to 7.6 µM.

In another assay the parent is B1. Put plainly: ITC. The source holds these as a separate data set.
In the case of chain 1 Q103A, the Kd worked out at 3.85 µM.

The variants in another assay derive from B1. The experiment in a line: ITC. The source holds these as a separate data set.
Turning to chain 1 D93A, the Kd is 43.5 µM.
